From patent publication US20240043559A1 (SHANGHAI HENLIUS BIOTECH, published 2024)
Each block holds one molecule with its values, some of them ahead of it.

Tests used:
[1] = molecular target: recombinant human GPC3 protein (human) (UniProt P51654); assay: ELISA on plate-coated human GPC3
[2] = molecular target: human GPC3 expressed endogenously on hepatoma cells (HepG2, Hep3B) (human) (UniProt P51654); assay: flow cytometry on HepG2 cells (endogenous GPC3)
[3] = molecular target: human GPC3 expressed endogenously on hepatoma cells (HepG2, Hep3B) (human) (UniProt P51654); assay: flow cytometry on Hep3B cells (endogenous GPC3)
[4] = molecular target: T1, human GPC3 expressed endogenously on hepatoma cells (HepG2, Hep3B) (human, UniProt P51654 25-554); assay: flow cytometry on HepG2 cells (endogenous GPC3)
T1 construct: also called GPC3 on HepG2; GPC3 on Hep3B
T1 sequence (P51654 other isoform, or with tags, fused parts or gaps limits assumed, form in doubt): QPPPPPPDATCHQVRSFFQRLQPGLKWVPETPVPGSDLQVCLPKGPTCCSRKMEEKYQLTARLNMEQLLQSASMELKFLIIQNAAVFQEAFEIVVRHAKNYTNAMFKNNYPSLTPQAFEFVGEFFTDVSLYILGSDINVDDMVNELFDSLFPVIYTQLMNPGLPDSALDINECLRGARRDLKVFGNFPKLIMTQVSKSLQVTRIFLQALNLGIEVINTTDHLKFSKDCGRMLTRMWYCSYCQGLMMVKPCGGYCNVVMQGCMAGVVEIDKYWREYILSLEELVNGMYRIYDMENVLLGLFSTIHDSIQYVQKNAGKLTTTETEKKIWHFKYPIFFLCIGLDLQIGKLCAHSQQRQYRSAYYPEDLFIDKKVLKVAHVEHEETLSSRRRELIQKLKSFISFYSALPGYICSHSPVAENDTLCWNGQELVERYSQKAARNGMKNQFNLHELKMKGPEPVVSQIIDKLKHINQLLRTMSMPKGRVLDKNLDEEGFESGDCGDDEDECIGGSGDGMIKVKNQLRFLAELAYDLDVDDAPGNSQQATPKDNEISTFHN

Sequence of human GPC3 expressed endogenously on hepatoma cells (HepG2, Hep3B) (human) (P51654 other isoform, or with tags, fused parts or gaps limits assumed, form in doubt): as above
Sequence of recombinant human GPC3 protein (human) (P51654 other isoform, or with tags, fused parts or gaps limits assumed, form in doubt): as above

EC50 (read off the curve) [1]: 0.02 µg/mL | EC50 (read off the curve) [2]: 2 nM | EC50 (read off the curve) [3]: 2 nM
Molecule: HN3 VHH-Fc (Fc fusion)

EC50 (read off the curve) [4]: ~0.3 nM
B1: 1B01 llama-human chimeric bivalent VHH-Fc (Fc fusion)
chain: QVQLQESGGGLVQAGGSLRLSCAAVGLPFSNYAMGWFRQAPGEEREFVSAVSANGGNEYYADSVKDRFTISRDNAKNTVYLRMLSLKLEDTAIYYCATVRRRGGTFTVGSYRGQGTQVTVSS
notes: also called Clone 1B01; 1B01 llama VHH; not shown: human IgG1 Fc fused to the C-terminal of the VHH
